As a reminder, the EC50 is the concentration giving half of the maximal effect. A low value points to greater potency. The Kd is the concentration at which binding is half-saturated. High values mean a looser complex, low ones a tighter complex.

The target in experiment [1] is T1, Raji cell surface human CD40 (Homo sapiens, UniProt P25942).
T1 construct: Raji cells highly express human CD40 on the cell surface; endogenous in cells; host or cells: Raji cells
The experiment in a line: FACS binding of humanized anti-CD40 antibodies to Raji cells. As for the experimental part: Raji cells highly express human CD40 on the cell surface and thus can be used to detect the binding properties of CD40 antagonistic antibodies to the cell surface human CD40.
Raji cells were plated at 1.5E5 cells/well, and various concentrations of CD40 antagonistic antibodies were added. The plate was incubated at 4° C. for 1 h. After two washes with FACS buffer (PBS+2% FBS), a secondary antibody (Alexa Flour488 conjugated anti-human IgG (H+L) antibody) was added, and the plate was incubated at 4° C. for 0.5 h. After two washes with FACS buffer, the fluorescence intensity on the cell surface was measured by flow cytometry (BD FACS Celesta).
A general note: Flow cytometry measures light scatter and fluorescence of single cells or particles in a stream.

Experiment [2] deals with T2, CD40 (Homo sapiens, UniProt P25942). Kind of experiment: Inhibition of CD40 reporter gene cell activity (HEK-Blue CD40L cells), humanized antibodies. Type of experiment: cell-based. The arrangement: host or cells: HEK-Blue CD40L cells. As for the experimental part:
HEK-Blue CD40L cells were purchased from Invivogen (Cat. #hkb-cd40). The cells were stably transfected with the human CD40 gene and the NF-kB-mediated SEAP genome. The activation level of the CD40 signaling pathway can be characterized by measuring the amount of secreted SEAP in the supernatant using QUANTI-Blue, the substrate of SEAP. In the assays, the inhibitory effects of the CD40 antagonistic antibodies on the CD40L-induced HEK-Blue CD40L cell activation were measured, and the in vitro cell activity of the CD40 antagonistic antibodies was assessed based on IC50.
HEK-Blue CD40L cells were cultured in a DMEM medium containing 10% FBS, 100 μg/mL Normocin, 100 μg/mL Zeocin, and 30 µg/mL Blasticidin, with 2-3 passages a week. HEK-Blue CD40L cells were plated at 5E4 cells/well into a 96-well cell culture plate (the medium was DMEM containing 10% FBS and 100 μg/mL Normocin) and incubated overnight. […] CD40L-his (R&D, 2706-CL-025) and anti-His antibody (R&D, MAB050-500) were added, and the plate was incubated overnight. After cell centrifugation, 20 μL of the cell supernatant was transferred to a new 96-well white plate, and 180 μL of QUANTI-Blue substrate solution was added. […] The absorbance at 620 nm was measured with an Envision microplate reader, and IC50 values were calculated and used to assess the in vitro cell activity of the CD40 antagonistic antibodies.
A general note: A reporter such as luciferase makes a cellular process visible.
Target sequence in this assay (P25942 21-277): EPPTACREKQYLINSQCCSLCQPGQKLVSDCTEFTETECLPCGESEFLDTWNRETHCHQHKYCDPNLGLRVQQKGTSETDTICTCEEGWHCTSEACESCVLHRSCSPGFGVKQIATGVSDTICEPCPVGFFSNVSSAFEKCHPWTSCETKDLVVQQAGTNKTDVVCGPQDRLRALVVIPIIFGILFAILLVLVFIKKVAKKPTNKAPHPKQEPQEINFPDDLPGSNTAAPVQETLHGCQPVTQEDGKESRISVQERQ

The target in experiment [3] is T2, CD40. The experiment in a line: SPR (Biacore) affinity of anti-CD40 antibodies for human CD40. Conditions: mobile phase Human CD40. Also on record: Glu21-Arg193; purchased Acrobiosystems Inc. CD0-H5228. Type of experiment: binding. As for the experimental part:
The test antibody was affinity-captured on an anti-human Fc chip, and a series of concentrations of His-tagged human or cynomolgus monkey CD40 antigen were allowed to flow over the chip surface. Reaction signals were detected in real time using a Biacore instrument, and thus association and dissociation curves were obtained. The buffer used in the experiment was HBS-EP+10× buffer solution (Cat. #BR-1006-69, GE) diluted to 1×(pH 7.4) with D. I. Water. Fitting was performed on the data obtained from the experiment using a (1:1) Binding model to obtain affinity values.
Target sequence in this assay (P25942 21-193): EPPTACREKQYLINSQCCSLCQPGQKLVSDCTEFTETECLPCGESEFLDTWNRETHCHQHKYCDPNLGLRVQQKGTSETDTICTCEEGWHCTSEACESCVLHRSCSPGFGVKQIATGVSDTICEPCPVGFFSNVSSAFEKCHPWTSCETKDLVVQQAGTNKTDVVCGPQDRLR

For experiment [4], the target named is T2, CD40. The experiment in a line: DC cell activation assay system (monocyte-derived DC, CD40L-induced CD80/CD86, IL-12/23 p40, TNFα). In kind it is cell-based. The arrangement: endogenous in cells; host or cells: human PBMCs (B cells); DCs differentiated from human CD14+ monocytes. From the text: CD40 is highly expressed on dendritic cells (DCs), and CD40L, upon binding to CD40, can induce DC activation, up-regulate the expression of multiple activation markers on the DC cell surface, and promote the secretion of multiple inflammatory factors from DCs, further amplifying immune responses. CD40 antagonistic antibodies block the binding of CD40L to CD40, thereby eliminating the immune activation process of DC cells.
Monocytes were sorted and enriched from fresh primary human peripheral blood PBMCs using the EsaySep™ human CD14 sorting kit (Stemcell, 19359), and differentiated for 6 days with RPMI-1640 medium (10% FBS and 1% penicillin-streptomycin), 50 ng/ml IL-4 (PeproTech, 200-04), and 50 ng/mL GM-CSF (PeproTech, 300-03). On day 7, the differentiated DC cells were plated at 1E5/well into a 96-well cell culture plate. Serially diluted test antibodies were added to the wells, and the cells were co-incubated at 37° C. in 5% CO2 for 0.5 h. CD40L-his and an anti-His antibody were then added to each well at final concentrations. After 48 h of culture, the level of DC cell activation was measured by flow cytometry: after centrifugation, the supernatant was removed, and the cells were washed twice with FACS buffer (PBS+2% FBS) and stained at room temperature for 15 min with 100 μL of Fixable viability dye EF780 (Invitrogen, 65086514) diluted at 1:1000. The cells were washed twice and then blocked at room temperature for 10 min with 100 μL of human Fc blocker (BD, 564220) diluted at 1:200. After centrifugation, the cells were incubated at 4° C. for 0.5 h with flow cytometry antibodies (Alexa Fluor® 700 anti-human CD11c (Biolegend, 337220), Brilliant Violet 421™ anti-human CD80 (Biolegend, 305221), and APC anti-human CD86 (Biolegend, 305412)) diluted at 1:200. After centrifugation, the supernatant was removed, the cells were washed twice with FACS buffer and then resuspended in 200 μL of PBS, and the fluorescence intensity on the cell surface was measured by a flow cytometer (BD FACS Celesta).
In addition, the level of cytokine secretion in the supernatant was measured after 24 h (TNFα, Cisbio, 62[…]) and 48 h (IL-12/23 p40, Novus, VAL121) of culture.
With reference to the method in Example 11, the inhibitory activity of the anti-CD40 antibody 9E6-L4H2-AAYTE carrying the AAYTE mutation in the Fc in the DC cell activation assay system was measured.
Target sequence in this assay (P25942 21-277): as the sequence (P25942 21-277) above

T1 sequence (P25942 21-277): as above

As for “CFZ533: anti-CD40 antagonistic antibody CFZ533 (i.e., iscalimab), positive control, variable regions from U.S. Pat. No. 8,277,810B”, the EC50 in experiment [1] was 1.01 nM. In addition, the IC50 with CD40 [2] (Experiment 1) came out at 0.36 nM; with CD40 [2] (Experiment 2), 0.35 nM; with CD40 [4] (48 h, read-out: IC50 (nM) in DC cell activation assay system, CD80 MFI), 1.19 nM; with CD40 [4] (48 h, read-out: IC50 (nM) in DC cell activation assay system, CD86 MFI) it was 1.93 nM; in the experiment with CD40 [4] (supernatant, 24 h, read-out: IC50 (nM) in DC cell activation assay system, TNFα) it was 0.35 nM; with CD40 [4] (supernatant, 48 h, read-out: IC50 (nM) in DC cell activation assay system, IL-12/23 p40) it was 0.68 nM. Besides, the “Ka” value with CD40 [3] came to 688000 M⁻¹ s⁻¹. In the experiment with CD40 [3], this substance gave a Kd of 0.205 nM. For the same substance, the “koff (dissociation rate constant, 1/s)” value in the experiment with CD40 [3] is 0.000141 s⁻¹.

These data come from patent publication US20260207759A1, “COMPOSITION OF CD40-BINDING MOLECULE AND PHARMACEUTICAL USE THEREOF” (SUZHOU SUNCADIA BIOPHARMACEUTICALS CO., LTD., priority 2022, published 2026).
